Assay results from publication PMC2652359.

Target: human factor Xa (human)
Experiment: functional titration of prothrombinase activity

human factor Xa (human), sequence (P00742 whole entry): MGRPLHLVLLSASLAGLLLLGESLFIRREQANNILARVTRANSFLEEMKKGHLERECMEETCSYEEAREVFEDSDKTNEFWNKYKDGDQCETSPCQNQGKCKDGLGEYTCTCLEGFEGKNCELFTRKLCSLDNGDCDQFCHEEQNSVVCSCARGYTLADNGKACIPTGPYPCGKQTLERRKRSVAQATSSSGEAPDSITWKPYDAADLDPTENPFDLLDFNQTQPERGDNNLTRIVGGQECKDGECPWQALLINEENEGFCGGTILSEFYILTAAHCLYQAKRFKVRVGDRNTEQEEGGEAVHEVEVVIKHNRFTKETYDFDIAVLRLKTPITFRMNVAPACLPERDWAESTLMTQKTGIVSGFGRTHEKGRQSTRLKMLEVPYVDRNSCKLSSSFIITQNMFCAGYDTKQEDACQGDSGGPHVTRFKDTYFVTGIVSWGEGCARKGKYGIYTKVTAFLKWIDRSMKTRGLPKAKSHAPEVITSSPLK

A Kd of 0.24 nM was found for “recombinant wild-type human factor Va (from UniProt P12259 29-737; P12259 1574-2224) (natural protein)” in this work.
